From US20160031996A1 (CSL, published 2016)
Positions count from the first letter of the chain named.

Assays:
[1] = biological target: T1, human IL-3Rα S59A/P88T double mutant, full length (human, UniProt P26951 19-378); assay: Western blot after SDS-PAGE of whole cell extracts
T1 chain: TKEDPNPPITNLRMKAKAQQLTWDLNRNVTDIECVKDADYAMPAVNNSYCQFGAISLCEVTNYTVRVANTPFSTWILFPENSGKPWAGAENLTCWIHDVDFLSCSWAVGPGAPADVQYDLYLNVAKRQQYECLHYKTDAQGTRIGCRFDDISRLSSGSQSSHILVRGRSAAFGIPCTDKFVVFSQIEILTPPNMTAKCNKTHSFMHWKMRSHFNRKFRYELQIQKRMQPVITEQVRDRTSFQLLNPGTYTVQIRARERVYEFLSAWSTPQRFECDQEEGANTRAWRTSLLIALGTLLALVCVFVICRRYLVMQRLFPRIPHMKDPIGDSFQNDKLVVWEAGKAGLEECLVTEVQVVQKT

[2] = biological target: T2, human IL-3Rα E51Q/S59A/P88T triple mutant, full length (human, UniProt P26951 19-378); assay: Western blot after SDS-PAGE of whole cell extracts
T2 chain: T1 chain with E33Q

[3] = biological target: T3, human IL-3Rα E51Q/P88T double mutant, full length (human, UniProt P26951 19-378); assay: Western blot after SDS-PAGE of whole cell extracts
T3 chain: T1 chain with E33Q, A41S

wild-type human GM-CSFRα = biological target: T4, wild-type human GM-CSFRα (human, UniProt P15509 23-400); assay: Western blot, whole cell extracts
T4 construct: whole, on cells; negative control, on 293F cells; also called GM-CSFRa
T4 sequence (looked up): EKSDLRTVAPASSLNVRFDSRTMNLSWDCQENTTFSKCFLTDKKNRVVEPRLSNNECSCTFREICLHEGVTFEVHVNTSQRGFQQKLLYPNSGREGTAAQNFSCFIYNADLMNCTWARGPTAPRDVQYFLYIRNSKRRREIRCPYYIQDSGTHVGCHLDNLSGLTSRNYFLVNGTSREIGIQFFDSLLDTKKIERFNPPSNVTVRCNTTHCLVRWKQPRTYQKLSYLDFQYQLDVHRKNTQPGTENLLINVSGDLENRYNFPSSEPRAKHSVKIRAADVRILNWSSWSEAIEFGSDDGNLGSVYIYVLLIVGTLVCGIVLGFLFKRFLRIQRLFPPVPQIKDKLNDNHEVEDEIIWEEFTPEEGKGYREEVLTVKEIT

[4] = biological target: T5, full length human IL-3Rα, wild type (human, UniProt P26951 19-378); assay: flow cytometry, MFI normalised to WT (reference, set as 100%)
T5 construct: expressed in 293F cells; also called WT
T5 sequence: T1 chain with A41S, T70P
Method: Median fluorescence intensity (MFI) of each antibody was determined for WT IL-3Rα and for each IL-3Rα mutant. The MFI of WT IL-3Rα staining for each antibody was set as 100% then the MFI of each mutant was normalized to a percent of WT staining.

[5] = biological target: T1, human IL-3Rα S59A/P88T double mutant, …; assay: flow cytometry on transfected cells (FIG. 5)
[6] = biological target: T2, human IL-3Rα E51Q/S59A/P88T triple …; assay: flow cytometry on transfected cells (FIG. 5)
[7] = biological target: T6, human IL-3Rα E51Q/S59A double mutant, full length (human, UniProt P26951 19-378); assay: flow cytometry on transfected cells (FIG. 5)
T6 chain: T1 chain with E33Q, T70P

[8] = biological target: T3, human IL-3Rα E51Q/P88T double mutant, …; assay: flow cytometry on transfected cells (FIG. 5)

B1: monoclonal antibody 7G3 (antibody, V domains shown)
VH: EVQLQQSGPELVKPGASVKMSCKASGYTFTDYYMKWVKQSHGKSLEWIGDIIPSNGATFYNQKFKGKATLTVDRSSSTAYMHLNSLTSEDSAVYYCTRSHLLRASWFAYWGQGTLVTVSA
VL: DFVMTQSPSSLTVTAGEKVTMSCKSSQSLLNSGNQKNYLTWYLQKPGQPPKLLIYWASTRESGVPDRFTGSGSGTDFTLTISSVQAEDLAVYYCQNDYSYPYTFGGGTKLEIKR
notes: mouse monoclonal antibody (hybridoma ATCC HB-12009)
- binding result [1]: no binding
- binding result [2]: no binding
- binding result [3]: no binding
- binding result (wild-type human GM-CSFRα): no binding
- MFI as percent of WT staining [4]: 100 % of WT MFI

B2: antibody CSL362 (antibody, V domains shown)
VH: EVQLVQSGAEVKKPGESLKISCKGSGYSFTDYYMKWARQMPGKGLEWMGDIIPSNGATFYNQKFKGQVTISADKSISTTYLQWSSLKASDTAMYYCARSHLLRASWFAYWGQGTMVTVSS
VL: DIVMTQSPDSLAVSLGERATINCESSQSLLNSGNQKNYLTWYQQKPGQPPKPLIYWASTRESGVPDRFSGSGSGTDFTLTISSLQAEDVAVYYCQNDYSYPYTFGQGTKLEIKR
- binding result [5]: no binding
- binding result [6]: no binding
- binding result [7]: no binding
- binding result [8]: no binding
